In PMC3618048, “A Novel Alkaliphilic Bacillus Esterase Belongs to the 13th Bacterial Lipolytic Enzyme Family” (PLoS ONE, 2013):

What was measured:
[1] = target: esterase EstOF4 from Bacillus pseudofirmus OF4 (Bacillus pseudofirmus OF4); assay: SEC; Superdex200 10/30 column calibrated with cytochrome C, carbonic anhydrase, bovine serum albumin and alcohol dehydrogenase; native molecular weight of purified EstOF4
[2] = substrate: CC(=O)Oc1ccc([N+](=O)[O-])cc1; assay: purified protein; type: biochemical, Alkalihalophilus pseudofirmus; conditions: 50 mM Tris-HCl pH 8.5, 50 °C
[3] = substrate: CCC(=O)Oc1ccc([N+](=O)[O-])cc1; assay: purified protein; type: biochemical, Alkalihalophilus pseudofirmus; conditions: 50 mM Tris-HCl pH 8.5, 50 °C
[4] = substrate: CCCC(=O)Oc1ccc([N+](=O)[O-])cc1; assay: purified protein; type: biochemical, Alkalihalophilus pseudofirmus; conditions: 50 mM Tris-HCl pH 8.5, 50 °C
[5] = substrate: CCCCCC(=O)Oc1ccc([N+](=O)[O-])cc1; assay: purified protein; type: biochemical, Alkalihalophilus pseudofirmus; conditions: 50 mM Tris-HCl pH 8.5, 50 °C
[6] = substrate: CCCCCCCC(=O)Oc1ccc([N+](=O)[O-])cc1; assay: purified protein; type: biochemical, Alkalihalophilus pseudofirmus; conditions: 50 mM Tris-HCl pH 8.5, 50 °C
[7] = substrate: CCCCCCCCCC(=O)Oc1ccc([N+](=O)[O-])cc1; assay: purified protein; type: biochemical, Alkalihalophilus pseudofirmus; conditions: 50 mM Tris-HCl pH 8.5, 50 °C
[8] = substrate: CCCCCCCCCCCC(=O)Oc1ccc([N+](=O)[O-])cc1; assay: purified protein; type: biochemical, Alkalihalophilus pseudofirmus; conditions: 50 mM Tris-HCl pH 8.5, 50 °C

For “esterase EstOF4 from Bacillus pseudofirmus OF4 (enzyme)”, the stoichiometry N [1] was 2.

B1: EstOF4 (Alkalihalophilus pseudofirmus OF4) (protein)
chain: MKVVAPKPFTFEGGDRAVLLLHGFTGTTADVRMIGRHLQKEGYTCHAPLYKGHGVPPEELVHTGPEDWWKDVEAGYNYLKEKGHEEIAVCGLSLGGVFSLKIGYTLPVKGIVPMCAPVRPKTEDAMYKGVLAYAREYKKREQKSDDVINQEMEAFKPMGTLSALGELIQDVHNHLDHIYSPTFVVQARNDEMIDVESANIIHDQIESDEKSLKWYEESGHVITLDKEKEQLHEDILQFLEGLDWTV
notes: full-length ORF (246 aa, 741 bp, no signal peptide), pET-28a NdeI/BamHI, N-terminal His tag, E. coli BL21(DE3); about 35 kDa SDS-PAGE, 64 kDa native dimer
In the case of B1, the Km [2] is reported as 37 ± 6 µM, the kcat [2] is reported as 2.07 ± 0.0667 s⁻¹ and the kcat/Km [2] is reported as 56700 M⁻¹ s⁻¹. For the same molecule, the Km [3] was 94 ± 9 µM, the kcat [3] was 3.52 ± 0.0667 s⁻¹ and the kcat/Km [3] was 38300 M⁻¹ s⁻¹. It also gave a Km [4] of 90 ± 9 µM, a kcat [4] of 3.65 ± 0.0667 s⁻¹ and a kcat/Km [4] of 40000 M⁻¹ s⁻¹. The Km [5] was 60 ± 6 µM, the kcat [5] was 5.48 ± 0.1 s⁻¹ and the kcat/Km [5] was 91700 M⁻¹ s⁻¹. The Km [6] was 102 ± 3 µM, the kcat [6] was 1.75 ± 0.0333 s⁻¹ and the kcat/Km [6] was 16700 M⁻¹ s⁻¹. The Km [7] was 173 ± 8 µM, the kcat [7] was 1.17 ± 0.0667 s⁻¹ and the kcat/Km [7] was 6670 M⁻¹ s⁻¹. It also gave a Km [8] of 42 ± 5 µM, a kcat [8] of 0.1 ± 0.0167 s⁻¹ and a kcat/Km [8] of 1670 M⁻¹ s⁻¹.
